Measured values from the Immune Epitope Database (IEDB).

Legend:
Test in all cases: IEDB peptide-MHC binding, purified MHC/competitive/radioactivity; filed as Kd, often an IC50 or EC50 that approximates it; ≥ and ≤ were set here for values at or beyond the usual limits of such assays
[1] = biological target: HLA-A*11:01
[2] = biological target: HLA-A*33:01
[3] = biological target: HLA-A*03:01
[4] = biological target: HLA-A*31:01
[5] = biological target: HLA-A*68:01
[6] = source organism: Mammarenavirus whitewaterense
[7] = source organism: Vaccinia virus WR
[8] = source organism: Mammarenavirus guanaritoense
[9] = source organism: Lymphocytic choriomeningitis virus (strain Armstrong)
[10] = source organism: Dengue virus 1 Brazil/97-11/1997
[11] = source organism: Dengue virus 2 Jamaica/1409/1983
[12] = source organism: Lassa virus Josiah
[13] = source organism: SARS coronavirus Tor2
[14] = source organism: Mammarenavirus choriomeningitidis

Sequence: PCMINDTHFL
- Kd [1, 6]: ≥ 46800 nM
- Kd [2, 6]: ≥ 48500 nM
- Kd [3, 6]: ≥ 70000 nM
- Kd [4, 6]: 11600 nM
- Kd [5, 6]: ≥ 40100 nM

Sequence: LVYFSTQQNK
- Kd [1, 7]: 1.56 nM
- Kd [2, 7]: ≥ 44600 nM
- Kd [3, 7]: 0.977 nM
- Kd [4, 7]: 5230 nM
- Kd [5, 7]: 4.03 nM

Sequence: NTSVDLYAR
- Kd [1, 8]: 2190 nM

Sequence: MLTNAISSR
- Kd [1, 7]: 4110 nM
- Kd [2, 7]: 237 nM
- Kd [3, 7]: 13.1 nM
- Kd [4, 7]: 9.57 nM
- Kd [5, 7]: 13.4 nM

Sequence: LMRFITAETH
- Kd [2, 9]: 5450 nM
- Kd [4, 9]: 411 nM
- Kd [5, 9]: 3540 nM

Sequence: TTLSLDYAWK
- Kd [1, 10]: 79.8 nM
- Kd [5, 10]: 13.9 nM

Sequence: LFDFVNFVK
- Kd [1, 7]: 145 nM
- Kd [2, 7]: 9100 nM
- Kd [3, 7]: 812 nM
- Kd [4, 7]: 798 nM
- Kd [5, 7]: 128 nM

Sequence: SIENKHQRR
- Kd [1, 7]: 6370 nM
- Kd [2, 7]: 696 nM
- Kd [3, 7]: ≥ 23900 nM
- Kd [4, 7]: 165 nM
- Kd [5, 7]: 627 nM

Sequence: IMQAGKRSLR
- Kd [2, 11]: 219 nM
- Kd [4, 11]: 5.8 nM

Sequence: GVCGIRSATR
- Kd [4, 10]: ≥ 70000 nM
- Kd [5, 10]: 1880 nM

Sequence: PSIFLIITK
- Kd [1, 7]: 36 nM
- Kd [2, 7]: 10900 nM
- Kd [3, 7]: 166 nM
- Kd [4, 7]: 9350 nM
- Kd [5, 7]: 4130 nM

Sequence: ISSKQYPAGR
- Kd [1, 7]: 128 nM
- Kd [2, 7]: 317 nM
- Kd [3, 7]: 1020 nM
- Kd [4, 7]: 5.62 nM
- Kd [5, 7]: 8.59 nM

Sequence: GLTPEQKAY
- Kd [1, 7]: ≥ 56300 nM
- Kd [2, 7]: ≥ 77700 nM
- Kd [3, 7]: ≥ 78000 nM
- Kd [4, 7]: ≥ 77900 nM
- Kd [5, 7]: 15000 nM

Sequence: LFKNLATSIY
- Kd [1, 7]: ≥ 69800 nM
- Kd [2, 7]: ≥ 70000 nM
- Kd [3, 7]: ≥ 41700 nM
- Kd [4, 7]: ≥ 37100 nM
- Kd [5, 7]: 19900 nM

Sequence: IAEFVKENER
- Kd [1, 7]: ≥ 30700 nM
- Kd [2, 7]: 5580 nM
- Kd [3, 7]: ≥ 70100 nM
- Kd [4, 7]: 1690 nM
- Kd [5, 7]: 169 nM

Sequence: DAHKKNLYDH
- Kd [1, 12]: ≥ 69700 nM
- Kd [2, 12]: ≥ 70000 nM
- Kd [3, 12]: ≥ 70000 nM
- Kd [4, 12]: 3430 nM
- Kd [5, 12]: ≥ 70100 nM

Sequence: AQPLPQRQKK
- Kd [1, 13]: 1230 nM
- Kd [2, 13]: ≥ 27500 nM
- Kd [3, 13]: ≥ 33400 nM
- Kd [4, 13]: ≥ 32700 nM
- Kd [5, 13]: ≥ 70200 nM

Sequence: FNMLKRARNR
- Kd [2, 10]: 421 nM

Sequence: VMAFIAFLR
- Kd [1, 10]: 171 nM
- Kd [2, 10]: 4.68 nM
- Kd [3, 10]: 38.5 nM
- Kd [4, 10]: 1.33 nM
- Kd [5, 10]: 4.51 nM

Sequence: LLMPILTLTR
- Kd [1, 13]: 199 nM
- Kd [2, 13]: 262 nM
- Kd [3, 13]: 571 nM
- Kd [4, 13]: 5.53 nM
- Kd [5, 13]: 89.7 nM

Sequence: ILSDIISAEK
- Kd [1, 7]: 0.829 nM
- Kd [2, 7]: 1380 nM
- Kd [3, 7]: 0.501 nM
- Kd [4, 7]: 14.5 nM
- Kd [5, 7]: 4.29 nM

Sequence: SAYLISIFMH
- Kd [1, 14]: 5630 nM
- Kd [2, 14]: 2950 nM
- Kd [3, 14]: 1230 nM
- Kd [4, 14]: 659 nM
- Kd [5, 14]: ≥ 70100 nM

Sequence: KSIHLTKTDK
- Kd [1, 7]: 19.8 nM
- Kd [2, 7]: ≥ 70000 nM
- Kd [3, 7]: 107 nM
- Kd [4, 7]: 313 nM
- Kd [5, 7]: 416 nM

Sequence: FLLRHYYNK
- Kd [1, 7]: 27.1 nM
- Kd [2, 7]: 2050 nM
- Kd [3, 7]: 7.31 nM
- Kd [4, 7]: 76.4 nM
- Kd [5, 7]: 1340 nM

Sequence: GIADIRDKY
- Kd [1, 7]: 8970 nM
- Kd [2, 7]: ≥ 77700 nM
- Kd [3, 7]: ≥ 78000 nM
- Kd [4, 7]: ≥ 77900 nM
- Kd [5, 7]: 2340 nM

Sequence: ATIQRFSSLR
- Kd [1, 7]: 4.64 nM
- Kd [2, 7]: 244 nM
- Kd [3, 7]: 23.4 nM
- Kd [4, 7]: 0.626 nM
- Kd [5, 7]: 6.84 nM

Sequence: MLSIINKRK
- Kd ([3]; source organism: Dengue virus 3 Martinique/1243/1999): 121 nM

Sequence: SVKGLTPSK
- Kd [1, 13]: 13.2 nM
- Kd [2, 13]: 9270 nM
- Kd [3, 13]: 7.56 nM
- Kd [4, 13]: 171 nM
- Kd [5, 13]: 180 nM

Sequence: SYQYLIIQNR
- Kd [1, 9]: ≥ 69700 nM
- Kd [2, 9]: 54.3 nM
- Kd [3, 9]: 9780 nM
- Kd [4, 9]: 0.953 nM
- Kd [5, 9]: 1690 nM

Sequence: GNFSWFPHK
- Kd [1, 9]: 80.2 nM
- Kd [2, 9]: 6310 nM
- Kd [3, 9]: 159 nM
- Kd [4, 9]: 1350 nM
- Kd [5, 9]: 1830 nM

Sequence: TAVAKCNVNH
- Kd [1, 9]: ≥ 69700 nM
- Kd [2, 9]: ≥ 66800 nM
- Kd [3, 9]: ≥ 70000 nM
- Kd [4, 9]: ≥ 70000 nM
- Kd [5, 9]: ≥ 65300 nM

Sequence: KIKTNDINVR
- Kd [1, 7]: 11300 nM
- Kd [2, 7]: ≥ 21000 nM
- Kd [3, 7]: 2910 nM
- Kd [4, 7]: 103 nM
- Kd [5, 7]: 9080 nM

Sequence: FMSHVKSVTK
- Kd [1, 7]: 3.28 nM
- Kd [2, 7]: 98.9 nM
- Kd [3, 7]: 7.73 nM
- Kd [4, 7]: 279 nM
- Kd [5, 7]: 31.6 nM

Sequence: TQIFEVYWY
- Kd [1, 7]: 353 nM
- Kd [2, 7]: 10900 nM
- Kd [3, 7]: 1850 nM
- Kd [4, 7]: 3800 nM
- Kd [5, 7]: 733 nM

Sequence: DWTDGSRGYR
- Kd [2, 8]: 1170 nM
- Kd [4, 8]: 918 nM

Sequence: GLFCLLNRY
- Kd [1, 13]: 1340 nM
- Kd [2, 13]: 13000 nM
- Kd [3, 13]: 839 nM
- Kd [4, 13]: 7160 nM
- Kd [5, 13]: 16100 nM

Sequence: VVVGAGGVGK
- Kd ([1]; source organism: Homo sapiens): 12.4 nM
- Kd ([3]; source organism: Homo sapiens): 82 nM

Sequence: TSSFREKSR
- Kd [1, 7]: 5750 nM
- Kd [2, 7]: 844 nM
- Kd [3, 7]: ≥ 65000 nM
- Kd [4, 7]: 132 nM
- Kd [5, 7]: 132 nM
